Our source for the protein production values is a protein production outcome set (Wang et al. 2014).

The series can be described thus: label from the status in PepcDB records.
For the sequence “MSKKPHSIKVPTQYRATAKILKAALEQQKCIKTLIFAEKHARTRSLHTVLKKFSENRVALEKAIEETGLLRDNPSFDPSLAKILVTELLFGRKELNGESKPVQTVRSYKDRLLNSIRDFGVQRKEPNPRYVRINTNLYSLAEALDYLHKSDWRRKELPADASYADFLTAIKSLAENEFMTDLHVEGVLIFPAKWSNYWVRHPLVHSKRFILQNKATCLAAELLAPPSGATVLDMCAAPGMKTVHICNVMQNKGCIYSVEQDHVRYNTLCEITKDAGCDIVKPILGDALNLTPERFPDVEYILVDPSCSGSGMQNRMTVCDEPKEDKRLQKLQGLQIKILSHAMGAFPNVKRIAYCTCSLWKEENEQVVQRCLQLNPSFKLLSCKKALRNKWHNVGDKDYPNIGKNVLYCQPDSDLTDGIFLALFEKRREGEKD”, the protein production entry was “failed”. For “MSKKQKPTGNTGRKNQIKGKYAERSRKNGFGKFCLILQVIMSAAFMGVLVLLDMLPLKYLALAALILFFLWCITFTTQAVRKKKGVTGKVYSILLIAVLAVGTYYIAKTNDMIAAITSGGSKVDKMVVAVLKDDPAETLEDASDYEFGVQFNTGAENMKAAVMDIQDQIGDISTTEYKSVQEQAEALISGEVDAIIYNQSYTELMENAVEGYNDQIRIIYKHEIETKFDFGGSAKDDSLTKKPFTVYISGIDTYGDDADDDRDSIRSDVNIIAVVNPTTHQILLITTPRDYYIPIPGISDGMNDKLTHAGTYGIDVSMETLGALYETDINYYVRLNFSSLIEIVDILGGVDVYSEYAFTTGWESGYEMEVQQGINHFDGKQALAFSRERHALEGGDNQRGKNQQAVITAMLKKVLSPTMLLKANSIINQVSQDVETNISQGQLNSLVKSQLKSGAKWTIQSVAASGTDGEDYCYSVPDMPLYVLYPDEEVVNSIVELANIVEEGGSLESGEALN” the value was “failed”; for “MSKPEFIARQGRKPTGWLGHIVARVMARETRPENDRALSFLDLADGDSLIDIGCGHGETLFQADRIVRLSGSVGVDFSEVMLKRARARNRDAVWDTRMAFHCADTAALPFPDKRFGKALSVHTIYFWPNPAAHLAEAFRVLRRGGRFLFCYRSTADRRAVEEFPDTVYRFPSVQEVEEKLKLVGFLGPETTTEDIKGRLTHWSIAEKPLEHHHHHH”, “not failed”; for “MSKRWLYSLQLIFFITLVFVLVTGCYSHPNQNIQSANSKPVTSECRIIKHPLGETCIPLHPQRIIAMDEDILEILVALDLKPIAVAINFDEWSSREKQLWQKAEGIDSIVIGNHGILNLEKMLLLKPDLILGLAESTDRKSYELFSQIAPTVTVDYAQTAWRDVLLRVGNIIGKTEQAQKLIAEFQQRIEKLRVIVKNKLGKTKISVVRVYNYFHKTIEFRSNFSFPGSLLVELGLSFPEKQNQIPTSPGFPFVFASLERLDLLDADVMFVTLDAGGEENFKKFQASPLWQKLKAVKNNCVYTVDSGYWIFGNIMSANAILDDLDKYLLQQCR”, “failed”. Under “MSKSLGFKVSVSFVNIFALPFFFVLLYGSGFVGAKLGLPHSTPLSFLSLRFMAAGLILLIIAKLIGNQLPNWREAIHISVAGSLTVCLFSVGVFVSIDMGLSPAVSALIVALQPILVALFARKLVNEQLNLAQWFGLLFGFLGVIVVVIDSIETTSFSWVAIAMSVLALFGVTFGSLYQKRYCADMEIFYGGAIQSLVSGLICLALLPFFESFKVVWTGEFIISLVYMVVGVSLGALSLLYIMIQRGEVSRVASVFYLVPVSAAVSAYLLFGETIESTTLFGASIIALGIFLTNRKSQNNMVVSMNK” stands “failed”; under “MSKSTAEIRQAFLDFFHSKGHQVVASSSLVPNNDPTLLFTNAGMNQFKDVFLGLDKRNYSRATTSQRCVRAGGKHNDLENVGYTARHHTFFEMLGNFSFGDYFKHDAIQFAWELLTGENWFALPKERLWVTVYETDDEAYEIWEKEVGIPRERIIRIGDNKGAPYASDNFWQMGDTGPCGPCTEIFYDHGDHIWGGPPGSPEEDGDRYIEIWNIVFMQFNRQADGTMEPLPKPSVDTGMGLERIAAVLQHVNSNYDIDLFRTLIEAVAKVTGATDLGNKSLRVIADHIRSCAFLVADGVLPSNENRGYVLRRIIRRAVRHGNMLGAKETFFYKLVGPLIEVMGSAGEELKRQQAQVEQVLKTEEEQFARTLERGLALLDEELAKLQGDTLDGETAFRLYDTYGFPVDLTADVCRERNIKVDEAGFEAAMEEQRRRAREASGFGADYNAMIRVDSASEFKGYDHLELNGKVTALFVDGKAVEAINAGQEAVVVLDQTPFYAESGGQVGDKGELKGAGFTFAVDDTQKYGQAIGHLGKLSAGALKVGDAVQADVDEARRARIRLNHSATHLMHAALRQVLGTHVAQKGSLVSDKVLRFDFSHNEAMKPSEIREVEDLVNAQIRRNLPIETNIMDLDAAKAKGAMALFGEKYDERVRVLSMGDFSTELCGGTHASRTGDIGLFRIISESGTAAGIRRIEAVTGEGAMATVHAQSDRLNDIAHLLKGDSQNLGDKVRAVLERTRQLEKELQQLKDQAAAQESANLSSKAVDLNGVKLLVSELAGIEPKMLRTMVDDLKNQLGSTVIVLATVVEGKVSLIAGVSKDVTDRVKAGELIGMVAQQVGGKGGGRPDMAQAGGTDAAALPAALASVQGWVSAKLQ”, “failed”; under “MSKTANFLSLRSNPLPPIFSSTGNSPFLRASSALNLPTTASKPFHSWIRASSRRRLVLGGFGGASLWMNNNMSGKFGGKSFIASARQTNPSPVEQALNKVDWPETFPFKEEDFQRYDESSDSTFYEAPRFVTHIDDPAIAALTKYYSKVLPQSDTPGVSILDMCSSWVSHYPPGYRQERIVGMGMNEEELKRNPVLTEYIVQDLNLNSNLPFEDNSFQVITNVVSVDYLTKPLEVFKEMNRILKPGGLALMSFSNRCFFTKAISIWTSTGDADHALIVGSYFHYAGGFEAPQAVDISPNPGRSDPMYVVYSRKLPMV”, “failed”. Take “MSKTVVLPQSDSPSVVASVSFWQAFRFWLKLGFISFGGPAGQIAMMHQELVDNRRWISEGRFLHALNFCMVLPGPEAQQLATYIGWLMHKTWGGVIAGVLFILPSLVLLIALAWIYLVWGDVAVVAGIFYGIKPAVAAIVLQAAHRIGSRALKNGAYWAIAAAAFVAIFALNVPFPLIVLAAALVGFIGGRLAPTIFGRADAHHAQSHPGGAAIIDDTTPIPAHAIFSWRRTSQVLIAGMLLWLVPMAALTLMLGWAHPLTQMSWFFTKAALMTFGGAYAVLPYVYQGAVTHYGWLTAGQMMDGLALGESTPGPLIMVVTFVGFVGGYTKAVLGVDDVLLGGIAAACLVTWFTFLPSFIFILAGGPFIETTHNKVGFTAPLTAITAAVVGVILNLALFFIWHSVWGPSGFDPWSAAIALGAAGLLFRYKWKLTWVLATAAAVGLIVHMAGLSGAG”: the protein production entry was “failed”. For “MSKVIYKISIDLGGIVKRNFEKETKNCGKVNEEVLFKILKSNDKSEIGIKFKFKDIKSIRQFKDSVPITEYKDYEKYINRMADGEGNVLMSEKVEYFGHTSGTTGKQKLVPCTKNSRRRASKYMALLVNRFCYDNFKENWNYARGMMIADIVMTTYTKGKIPICSATSGGMKGIKHLLPYLYTSPIEVMEIKDKETALYLHLLFGLEEEELLYISGVFISNILDLFRTLEKNNKALVRDIQKGSISEELNIDEGLRKVLNKKLKPNNKRAMELEKEFKKGFKGIAKRIWPNLLYIASVTGANFSIYNDKVYYYIDSIPIYSAAYGSTEAMIGINPYASKVLYVITPSAVFYEFIPIGEKGEESFDTLLLSELKLGGRYEVVITNYAGLYRYKIGDVVKVVGFYNKCPEIEFLYRKNQVLNMAAEKTNEEHLTYAIKNTIKKLNLDLVDYTTEPDNSITPGRYIFYFEFRNNMYGFSTEKLQNILDDELRVSNLAYNRARNNKKLGMLKVEVLAPNTFDLIKEALFNKGISKNQIKIPRVIINNKIVMDIINRNKIKFVKKSVI” the value was “failed”; for “MSKVKIELFTSPMCPHCPAAKRVVEEVANEMPDAVEVEYINVMENPQKAMEYGIMAVPTIVINGDVEFIGAPTKEALVEAIKKRL”, “not failed”.

Turning to “MSKVNEITRESWILSTFPEWGTWLNEEIEQTVVEPNTFSMWWLGCTGIWLKSAGNTNLSIDFWCGTGKKTQKNRLMNTQHQMMRMGGVEALQPNLRTSIFPLDPFAIKEIDAVLASHDHADHIDVNVAAAVLQNCGEHVKFIGPQACVDLWLGWGVPQERCIVAKVGDVLEIGDVKIRVLDSFDRTALVTLPKGVSSYDKAILDGMDERAVNYLIETSGGSVYHSGDSHYSNYYAKHGNDYQIDVALLSYGENPRGVTDKMTSSDVLRAAESLDCQVVVPFHHDIWANFQNDPREIEVLWNMKKDRLQYQFAPFFWQVGGKYTYPTDKGRMHYQHFRGFQDIFKNEPELPYKAFL”, the protein production entry is given as “not failed”. Under “MSLAHKFDPSKIKKLDDPSRLELFDPEKVLKEFGLKEGMTVLDVGTGAGFYLPYLSKMVGEKGKVYAIDVQEEMVNYAWEKVNKLGLKNVEVLKSEENKIPLPDNTVDFIFMAFTFHELSEPLKFLEELKRVAKPFAYLAIIDWKKEERDKGPPPEEVYSEWEVGLILEDAGIRVGRVVEVGKYCFGVYAMIVKQEEENPLMNVPFKIPPGEGHHHHHH” stands “not failed”.

“MSLAHPPRLNDDKPVIWTVSVTRLFELFRDISLEFDHLANITPIQLGFEKAVTYIRKKLANERCDAIIAAGSNGAYLKSRLSVPVILIKPSGYDVLQELAKAGKLTSSIGVVTYQETIPALVAFQKTFNLRLDQRSYITEEDARGQINELKANGTEAVVGAGLITDLAEEAGMTGIFIYSAATVRQAFSDALDMTRMSLRHNTHDATRNALRTRYVLEGHHHHHH”: the protein production entry is listed as “not failed”. Under “MSLAKISKIEAQKRKGRYNIYLDGKYAFPVAESVLIQFRLMKGTELDEKQIAAIATADQQAKAYSRMLDYLSYQMRTESDIVKKLKEIDTPEEFVEPILKKLRGQQLIDDHAYAASYVRTMINTDLKGPGIIRQHLRQKGIGESDIDDALTQFTPEVQAELAKKLALKLFRRYRNQPERRREQKVQQGLTTKGFSSSVYEMIKDEVVPQPDLEEGHHHHHH” stands “not failed”. Under “MSLALRGELVVDKTKRKKRRELSEEQKQEIKDAFELFDTDKDQAIDYHELKVAMRALGFDVKKADVLKILKDYDREATGKITFEDFNEVVTDWILERDPHEEILKAFKLFDDDDSGKISLRNLRRVARELGENMSDEELRAMIEEFDKDGDGEINQEEFIAIMTGDI” stands “not failed”; under “MSLANWYLDNESSRLSFTSTKNADIAEVHRFLVLHGKVDPKGLAEVEVETESISTGIPLRDERLREQVFQVHKFPVAQINAQLDMRPINNLAPGAQLELRLPLTVSLRGKSHSYNAELLATRLDERRFQVVTLEPLVIHAQDFDMVSDFNALRNAAGLSAVSLSVPVGAVLIFTAREGHHHHHH”, “not failed”. For “MSLARTEKIYIYGASGHGLVCEDVAKNMGYKECIFLDDFKGMKFESTLPKYDFFIAIGNNEIRKKIYQKISENGFKIVNLIHKSALISPSAIVEENAGILIMPYVVINAKAKIEKGVILNTSSVIEHECVIGEFSHVSVGAKCAGNVKIGKNCFLGINSCVLPNLSLADDSILGGGATLVKNQDEKGVFVGVPAKRMEGGSHHHHHH” the value was “not failed”; for “MSLASFPHRNLTWNDINFVHTTDTHGWYSGHINQPLYHANWGDFISFTTHMRRIAHSRNQDLLLIDSGDRHDGNGLSDITSPNGLKSTPIFIKQDYDLLTIGNHELYLWENSKQEYETVVNHFQDKYVCSNVDIRLDNGLFVPLGLKYKYFTTPIRGIRVMAFGFLFDFKRFNSGTRVTPMAETIHEPWFQEALKHEVDLIIIVGHTPISHNWGEFYQVHQYLRQFFPDTIIQYFGGHSHIRDFTVFDSLSTGLQSGRYCETVGWTSVNLDKADLNLPVRQRFSRSYIDFNTDSFKYHTNLDKEFDTAKGKLVSKLIRETRKELKLDTLIGYVKTNYYVDYVPIDHPKSIFNLLALKILKTLPKSKHEERITIINTGSIRYDLYKGPYTIDSKFIVSPFENIWVNITVPKSVATKVAAKLNDADYISASRLKPPHQYDLQVQDLSTSPHQAHFEMQEKLPKGYVTHDDFGADGDDTLHRAVVNFPVPNVIQSVEINDEVDSPVNLVFYSFITPNIIWALKELNFSTEQVPTPYSDIYLGTLLNEFVANNEGHHHHHH”, “not failed”.
